This note sets out measurements from article PMC7110113, “Termination of non‐coding transcription in yeast relies on both an RNA Pol II CTD interaction domain and a CTD‐mimicking region in Sen1” (The EMBO Journal, 2020).

Ends that are not written are not given here. FAM = 5,6-carboxyfluorescein

Assay [1] concerns the target Trf4 NIM peptide (S. cerevisiae). Briefly: fluorescence polarisation; fluorescence anisotropy, equilibrium binding of Nrd1 CID variants to FAM-labelled NIM peptides; 10°C, 50 mM Na2HPO4, 100 mM NaCl, pH 8; 1:1 model with non-specific binding (DynaFit).
Assay [2] has as its target Sen1 NIM peptide (Sen1 aa 2,052-2,063) (S. cerevisiae) (UniProt Q00416). Described as above.
Assay [3] has as its target T1, Nrd1 CID S25D (S. cerevisiae, UniProt P53617 1-153, S25D).
T1 construct: Nrd1 CID, S. cerevisiae; source: recombinant, purified as described previously (Kubicek et al, 2012)
T1 sequence (looked up): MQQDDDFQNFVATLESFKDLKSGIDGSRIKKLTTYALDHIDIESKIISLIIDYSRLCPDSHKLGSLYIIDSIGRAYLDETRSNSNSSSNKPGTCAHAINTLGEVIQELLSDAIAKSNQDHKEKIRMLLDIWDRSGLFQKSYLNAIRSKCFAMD
Briefly: fluorescence polarisation; fluorescence anisotropy; N-terminally FAM-labelled NIM peptides with purified Nrd1 CID versions; 10°C, 50 mM Na2HPO4, 100 mM NaCl, pH 8; 1:1 model with non-specific binding (DynaFit). The settings on record: both partners purified.

The target of assay [4] is T2, Nrd1 CID (S. cerevisiae, UniProt P53617 1-153).
T2 construct: The NMR sample was uniformly 15N,13C-labelled; also called wild-type Nrd1 CID; source: recombinant, purified as described previously (Kubicek et al, 2012)
T2 sequence (looked up): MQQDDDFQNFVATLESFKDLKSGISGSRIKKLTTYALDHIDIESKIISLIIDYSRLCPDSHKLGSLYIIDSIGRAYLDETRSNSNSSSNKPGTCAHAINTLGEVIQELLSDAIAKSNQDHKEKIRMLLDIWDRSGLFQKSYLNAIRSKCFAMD
The description is as above. As to conditions: both partners purified.

Assay [5] deals with T2, Nrd1 CID. The assay is described as follows: NMR titration; [1H,15N] HSQC of Nrd1 CID titrated with NIM peptide, chemical shift perturbations; 20°C, 50 mM Na2HPO4, 100 mM NaCl, pH 8. The settings on record: both partners purified.
For assay [6], the target named is Trf4 NIM peptide, FAM-labelled (S. cerevisiae). The assay is described as follows: fluorescence polarisation; fluorescence anisotropy; N-terminally FAM-labelled NIM peptides with purified Nrd1 CID versions; 10°C, 50 mM Na2HPO4, 100 mM NaCl, pH 8; 1:1 model with non-specific binding (DynaFit).

As to “Nrd1 CID S25D (from UniProt P53617 1-153) (domain or fragment)”, the Kd was 53.9 µM in assay [1] and 76.1 µM in assay [2].

B1: Sen1 NIM peptide, FAM-labelled (peptide, UniProt Q00416 2052-2063, looked up)
peptide: {FAM}-DDDEDDYTPSIS
notes: The text prints D2052-D2053-D2054-E2055-D2056-D2057, Y2058, T2059, P2060, S2061 and I2062; source: synthetic peptide
Take B1: the binding result in assay [3] is recorded as “binds”. Binding in assay [4] was put at a Kd of 1200 ± 20 nM.

B2: Sen1 NIM peptide (NMR) (peptide, UniProt Q00416 2052-2063, looked up)
peptide: DDDEDDYTPSIS
notes: The text prints D2052-D2053-D2054-E2055-D2056-D2057, Y2058, T2059, P2060, S2061 and I2062; it is surmised to be unlabelled; source: synthetic peptide
Take B2: in assay [5], the binding result was “binds”.

B3: Nrd1 CID I130A (domain or fragment)
chain: MQQDDDFQNFVATLESFKDLKSGISGSRIKKLTTYALDHIDIESKIISLIIDYSRLCPDSHKLGSLYIIDSIGRAYLDETRSNSNSSSNKPGTCAHAINTLGEVIQELLSDAIAKSNQDHKEKIRMLLDAWDRSGLFQKSYLNAIRSKCFAMD
The molecule B3 had a Kd in assay [1] of 4.5 µM.

B4: Nrd1 CID R133G (domain or fragment)
chain: MQQDDDFQNFVATLESFKDLKSGISGSRIKKLTTYALDHIDIESKIISLIIDYSRLCPDSHKLGSLYIIDSIGRAYLDETRSNSNSSSNKPGTCAHAINTLGEVIQELLSDAIAKSNQDHKEKIRMLLDIWDGSGLFQKSYLNAIRSKCFAMD
In the case of B4, the Kd in assay [1] worked out at 1.3 µM.

B5: Nrd1 CID I130N (domain or fragment)
chain: MQQDDDFQNFVATLESFKDLKSGISGSRIKKLTTYALDHIDIESKIISLIIDYSRLCPDSHKLGSLYIIDSIGRAYLDETRSNSNSSSNKPGTCAHAINTLGEVIQELLSDAIAKSNQDHKEKIRMLLDNWDRSGLFQKSYLNAIRSKCFAMD
As to B5, the Kd in assay [1] was found to be 6.1 µM.

B6: Nrd1 CID L20D (domain or fragment)
chain: MQQDDDFQNFVATLESFKDDKSGISGSRIKKLTTYALDHIDIESKIISLIIDYSRLCPDSHKLGSLYIIDSIGRAYLDETRSNSNSSSNKPGTCAHAINTLGEVIQELLSDAIAKSNQDHKEKIRMLLDIWDRSGLFQKSYLNAIRSKCFAMD
Molecule B6 returned a Kd in assay [1] of 13.4 µM.

B7: Nrd1 CID (domain or fragment)
chain: MQQDDDFQNFVATLESFKDLKSGISGSRIKKLTTYALDHIDIESKIISLIIDYSRLCPDSHKLGSLYIIDSIGRAYLDETRSNSNSSSNKPGTCAHAINTLGEVIQELLSDAIAKSNQDHKEKIRMLLDIWDRSGLFQKSYLNAIRSKCFAMD
For B7, the Kd in assay [6] came to 900 nM.

B8: Nrd1 CID I130K (domain or fragment)
chain: MQQDDDFQNFVATLESFKDLKSGISGSRIKKLTTYALDHIDIESKIISLIIDYSRLCPDSHKLGSLYIIDSIGRAYLDETRSNSNSSSNKPGTCAHAINTLGEVIQELLSDAIAKSNQDHKEKIRMLLDKWDRSGLFQKSYLNAIRSKCFAMD
Molecule B8 displayed a Kd in assay [1] of 14.1 µM.

B9: Nrd1 CID R133D (domain or fragment)
chain: MQQDDDFQNFVATLESFKDLKSGISGSRIKKLTTYALDHIDIESKIISLIIDYSRLCPDSHKLGSLYIIDSIGRAYLDETRSNSNSSSNKPGTCAHAINTLGEVIQELLSDAIAKSNQDHKEKIRMLLDIWDDSGLFQKSYLNAIRSKCFAMD
In assay [1], B9 had a Kd of 1.2 µM.

B10: Nrd1 CID R28D (domain or fragment)
chain: MQQDDDFQNFVATLESFKDLKSGISGSDIKKLTTYALDHIDIESKIISLIIDYSRLCPDSHKLGSLYIIDSIGRAYLDETRSNSNSSSNKPGTCAHAINTLGEVIQELLSDAIAKSNQDHKEKIRMLLDIWDRSGLFQKSYLNAIRSKCFAMD
With B10, in assay [1], the Kd came out at 63.4 µM.

B11: Nrd1 CID M126A (domain or fragment)
chain: MQQDDDFQNFVATLESFKDLKSGISGSRIKKLTTYALDHIDIESKIISLIIDYSRLCPDSHKLGSLYIIDSIGRAYLDETRSNSNSSSNKPGTCAHAINTLGEVIQELLSDAIAKSNQDHKEKIRALLDIWDRSGLFQKSYLNAIRSKCFAMD
In assay [1], B11 yielded a Kd of 1.1 µM.

B12: Nrd1 CID K21D (domain or fragment)
chain: MQQDDDFQNFVATLESFKDLDSGISGSRIKKLTTYALDHIDIESKIISLIIDYSRLCPDSHKLGSLYIIDSIGRAYLDETRSNSNSSSNKPGTCAHAINTLGEVIQELLSDAIAKSNQDHKEKIRMLLDIWDRSGLFQKSYLNAIRSKCFAMD
B12 registered a Kd in assay [1] of 6.1 µM.

B13: Nrd1 CID R133A (domain or fragment)
chain: MQQDDDFQNFVATLESFKDLKSGISGSRIKKLTTYALDHIDIESKIISLIIDYSRLCPDSHKLGSLYIIDSIGRAYLDETRSNSNSSSNKPGTCAHAINTLGEVIQELLSDAIAKSNQDHKEKIRMLLDIWDASGLFQKSYLNAIRSKCFAMD
B13 gave a Kd in assay [1] of 1.4 µM.
